The record followed here is US20220031830A1.

The target in test [1] is RC1 Env trimer (BG505-derived SOSIP.664 soluble gp140) (HIV-1 BG505). Nature of the test: SPR (Biacore T200), SOSIP captured on 8ANC195 IgG, Fab injected, equilibrium fit 1:1. In general terms: In SPR one partner is held on a chip, and binding of the other changes the refractive index at the surface.
In test [2] the target is 11MUTB Env trimer (SOSIP.664) derived from wtBG505 (HIV-1 BG505). Described as above.

By Kd is commonly meant the free concentration of one partner at which half of the binding sites on the other are occupied at equilibrium, for simple one-to-one binding. For the substance “Fab of the common inferred germline (iGL) precursor of PGT121 and 10-1074”, the dissociation constant Kd in test [1] and in test [2] was 50 µM in each case.
